Laboratory results from patent US20220089745A1 (Biogen, published 2022).

B1: BIIB-4-147 (Fab, V domains shown)
VH: QVQLVQSGAEVKKPGASVKVSCKASGYTFTSYGISWVRQAPGQGLEWMGWISAYNGNTNYAQKLQGRVTMTTDTSTSTAYMELRSLRSDDTAVYYCARDLEYYDSSGYAYGYFDLWGRGTLVTVSS
VL: not shown
notes: Tested as Fab made from yeast-expressed, protein A-purified antibody; Only VH and VL are tied to the clone
B2: BIIB-4-156 (Fab, V domains shown)
VH: QVQLVQSGAEVKKPGSSVKVSCKASGGTFSSYAISWVRQAPGQGLEWMGGIIPIFGTANYAQKFQGRVTITADESTSTAYMELSSLRSEDTAVYYCARDTGYYGASLYFDYWGQGTLVTVSS
VL: EIVLTQSPATLSLSPGERATLSCRASQSVSSYLAWYQQKPGQAPRLLIYDASNRATGIPARFSGSGSGTDFTLTISSLEPEDFAVYYCQQRSALPRTFGGGTKVEIK
notes: as for B1
B3: BIIB-4-317 (Fab, V domains shown)
VH: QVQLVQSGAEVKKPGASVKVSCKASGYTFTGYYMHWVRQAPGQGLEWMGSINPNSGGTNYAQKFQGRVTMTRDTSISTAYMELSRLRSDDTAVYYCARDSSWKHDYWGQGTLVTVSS
VL: EIVLTQSPATLSLSPGERATLSCRASQSVSSYLAWFQQKPGQAPRLLIYDASNRATGIPARFSGSGSGTDFTLTISSLEPEDFAVYYCQQYSFYPLTFGGGTKVEIK
notes: as for B1
B4: BIIB-4-209 (Fab, V domains shown)
VH: QVQLVQSGAEVKKPGASVKVSCKASGYTFTSYGISWVRQAPGQGLEWMGWISAYNGNTNYAQKLQGRVTMTTDTSTSTAYMELRSLRSDDTAVYYCARGRPYDHYFDYWGQGTLVTVSS
VL: EIVLTQSPATLSLSPGERATLSCRASQSVSSYLAWYQQKPGQAPRLLIYDASNRATGIPARFSGSGSGTDFTLTISSLEPEDFAVYYCQQAYNYPFTFGGGTKVEIK
notes: as for B1
B5: BIIB-4-204 (Fab, V domains shown)
VH: QVQLVQSGAEVKKPGASVKVSCKASGYTFTSYSMHWVRQAPGQGLEWMGIINPSGGSTSYAQKFQGRVTMTRDTSTSTVYMELSSLRSEDTAVYYCARSYDIGYFDLWGRGTLVTVSS
VL: EIVLTQSPATLSLSPGERATLSCRASQSVSSYLAWYQQKPGQAPRLLIYDASKRATGIPARFSGSGSGTDFTLTISSLEPEDFAVYYCQQDSFLPFTFGGGTKVEIK
notes: as for B1
B6: BIIB-4-174 (Fab, V domains shown)
VH: QVQLVQSGAEVKKPGSSVKVSCKASGGTFSSYAISWVRQAPGQGLEWMGGIIPIFGTANYAQKFQGRVTITADESTSTAYMELSSLRSEDTAVYYCARGPPSAYGDYVWDIWGQGTMVTVSS
VL: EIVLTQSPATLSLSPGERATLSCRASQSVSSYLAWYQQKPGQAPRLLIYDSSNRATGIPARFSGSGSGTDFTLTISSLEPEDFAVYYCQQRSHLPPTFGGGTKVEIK
notes: as for B1
B7: BIIB-4-175 (Fab, V domains shown)
VH: EVQLVESGGGLVQPGGSLRLSCAASGFTFSDHHMDWVRQAPGKGLEWVGRTRNKANSYTTEYAASVKGRFTISRDDSKNSLYLQMNSLKTEDTAVYYCARGPPYYADLGMGVWGQGTTVTVSS
VL: EIVMTQSPATLSVSPGERATLSCRASQSVSSNLAWYQQKPGQAPRLLIYGASTRATGIPARFSGSGSGTEFTLTISSLQSEDFAVYYCQQFNLYPYTFGGGTKVEIK
notes: as for B1
B8: BIIB-4-311 (Fab, V domains shown)
VH: QVQLVQSGAEVKKPGASVKVSCKASGYTFTSYYMHWVRQAPGQGLEWMGVINPSGGSTSYAQKFQGRVTMTRDTSTSTVYMELSSLRSEDTAVYYCARLMSGSSGSWGQGTLVTVSS
VL: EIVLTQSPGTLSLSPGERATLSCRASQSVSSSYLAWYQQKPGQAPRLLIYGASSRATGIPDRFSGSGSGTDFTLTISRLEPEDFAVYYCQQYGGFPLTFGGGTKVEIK
notes: as for B1
B9: BIIB-4-224 (Fab, V domains shown)
VH: QLQLQESGPGLVKPSETLSLTCTVSGGSISSSSYYWGWIRQPPGKGLEWIGSIYYSGSTYYNPSLKSRVTISVDTSKNQFSLKLSSVTAADTAVYYCARDFYSSVYGMDVWGQGTTVTVSS
VL: DIQLTQSPSSLSASVGDRVTITCRASQSISSFLNWYQQKPGKAPKLLIYAASSLQSGVPSRFSGSGSGTDFTLTISSLQPEDFATYYCQQSYVHPLTFGGGTKVEIK
notes: as for B1
B10: BIIB-4-318 (Fab, V domains shown)
VH: QVQLQESGPGLVKPSETLSLTCAVSGYSISSGYYWGWIRQPPGKGLEWIGSIYHSGSTNYNPSLKSRVTISVDTSKNQFSLKLSSVTAADTAVYYCARSPRWRSTYANWFNPWGQGTLVTVSS
VL: DIQLTQSPSSVSASVGDRVTITCRASQGISSWLAWYQQKPGKAPKLLIYGASSLQSGVPSRFSGSGSGTDFTLTISSLQPEDFATYYCQQAAPFPLTFGGGTKVEIK
notes: as for B1
B11: BIIB-4-309 (Fab, V domains shown)
VH: QVQLVQSGAEVKKPGASVKVSCKASGYTFTSYGISWVRQAPGQGLEWMGWISAYNGNTNYAQKLQGRVTMTTDTSTSTAYMELRSLRSDDTAVYYCARDGLGSSPWSAFDIWGQGTMVTVSS
VL: not shown
notes: Tested as Fab made from yeast-expressed, protein A-purified antibody; Only VH and VL are tied to the clone; also called Fab BIIB_4_309
B12: BIIB-4-319 (Fab, V domains shown)
VH: QVQLQESGPGLVKPSETLSLTCAVSGYSISSGYYWAWIRQPPGKGLEWIGSIYHSGSTYYNPSLKSRVTISVDTSKNQFSLKLSSVTAADTAVYYCAREHSSSGQWNVWGQGTMVTVSS
VL: EIVLTQSPATLSLSPGERATLSCRASQSVSSYLAWYQQKPGQAPRLLIYDASNRATGIPARFSGSGSGTDFTLTISSLEPEDFAVYYCQQRSFYFTFGGGTKVEIK
notes: Tested as Fab made from yeast-expressed, protein A-purified antibody; Only VH and VL are tied to the clone; also called BBB-4-319

Key:
[1] = target: T1, wild type (WT) GPIIb/IIIa ectodomain (heterodimer of SEQ ID NOs: 1 and 3) (human, UniProt P08514 32-993; P05106 27-716); assay: apparent monovalent affinity for GP2b3a (SEQ ID: 1 and 3); BLI or SPR, the method of each row is not given
T1 construct: Recombinant purified ectodomain; also called GP2b3a; integrin αIIbβ3

[2] = target: T2, integrin alpha v beta III ectodomain (SEQ ID NOs: 245 and 3) (human, UniProt P06756 31-992; P05106 27-716); assay: BLI, yeast purified Fab on sensor-associated AvB3 (sheet head: SEQ ID NOs: 199, 3; legend: SEQ ID NO 245 and 3); Fab concentration not given
T2 construct: Purified recombinant ectodomain; also called alpha v beta 3

[3] = target: T2, integrin alpha v beta III ectodomain …; assay: BLI, yeast purified Fab on sensor-associated AvB3 (sheet head: SEQ ID NOs: 199, 3; legend: SEQ ID NO 245 and 3)
[4] = target: T3, GPIIb/IIIa on gel-purified human platelets (activated or resting) (human, UniProt P08514 32-1039; P05106 27-788); assay: flow cytometry, Fab on gel-purified human platelets; steeper curve with filled circles, which the legend box labels resting platelets
T3 construct: whole, on cells; Native receptor on platelets; also called integrin αIIbβ3 on platelets; GPIIb/IIIa on platelets

[5] = target: T2, integrin alpha v beta III ectodomain …; assay: BLI, monovalent format, yeast purified Fab; drawn table of apparent integrin binding specificity (legend of FIGS. 20A-D: alpha V beta III is SEQ ID NO 245 and 3)
[6] = target: T2, integrin alpha v beta III ectodomain …; assay: BLI, yeast purified Fab on sensor-associated AvB3 (sheet head: SEQ ID NOs: 199, 3; legend: SEQ ID NO 245 and 3); Fab concentration not given; remark: listed apart in the source
[7] = target: T2, integrin alpha v beta III ectodomain …; assay: BLI, monovalent format, yeast purified Fab; drawn table of apparent integrin binding specificity
[8] = target: T2, integrin alpha v beta III ectodomain …; assay: BLI, yeast purified Fab on sensor-associated AvB3 (sheet head: SEQ ID NOs: 199, 3; legend: SEQ ID NO 245 and 3); remark: listed apart in the source

| Binder | Kd [1] [nM] | binding result [7] | other results |
| --- | --- | --- | --- |
| B1 | 5 |  | binding result [2]: no binding |
| B2 | 11 |  | binding result [3]: binds; EC50 (read off the curve) [4]: ~20 nM |
| B3 |  |  | binding result [5]: binds |
| B4 | 98 |  | binding result [5]: binds |
| B5 | 170 |  | binding result [5]: binds |
| B6 | 11 |  | binding result [6]: no binding |
| B7 | 15 | no binding |  |
| B8 | 64 | no binding |  |
| B9 | 200 | no binding |  |
| B10 | 3 | no binding |  |
| B11 | 25 | no binding |  |
| B12 |  |  | binding result [8]: binds |
